One assay has as its system PP2A-B55α. Nature of the assay: Single alanine mutational scan, YFP-tagged interactors immunoprecipitated from HeLa cells, Western blot. Format: binding, human. The conditions noted are these: single alanine mutant of YFP-tagged ZDS1. In general terms: In western blotting, separated proteins are transferred to a membrane and probed.
The subject of a further assay is B55α interactors. Nature of the assay: MS analysis of B55α WT, V228A, I284A, S287A and D340A immunopurifications. Format: binding, human. The conditions noted are these: log2 ratio of interactor abundance, 4 replicates each, normalised to bait B55α; for log2_ratio_D340_WT: B55α D340A vs WT immunopurification; for log2_ratio I284_WT: B55α I284A vs WT immunopurification; for log2_ratio S287_WT: B55α S287A vs WT immunopurification; for log2_ratio V228_WT: B55α V228A vs WT immunopurification. How it is done:
Standard cloning techniques were used throughout. Point mutations were introduced by whole plasmid polymerase chain reaction (PCR). All constructs were fully sequenced. Synthetic DNA was purchased from GeneArt, Life Technologies and cloned into pcDNA5/FRT/TO (Invitrogen) expression vector containing YFP, resulting in the indicated YFP fusion proteins. These constructs were transiently transfected into HeLa cells 24 hours before harvesting cells. Cells were lysed in lysis buffer [50 mM tris-HCl (pH 7.5), 50 mM NaCl, 1 mM EDTA, 1 mM […], and 0.1% NP-40]. Complexes were immunoprecipitated at 4°C in lysis buffer with green fluorescent protein (GFP)–Trap (ChromoTek) and washed in lysis buffer. Precipitated protein complexes were washed three times in lysis buffer, eluted in 2× SDS sample buffer, and subjected to Western blotting or MS as indicated.
Pull-downs were analyzed on a Q-Exactive Plus quadrupole or Fusion Orbitrap Lumos mass spectrometer (Thermo Fisher Scientific) equipped with Easy-nLC 1000 or […] (Thermo Fisher Scientific) and nanospray source (Thermo Fisher Scientific).
Static modifications included carbamidomethylcysteine, and variable modifications included oxidized methionine and STY phosphorylation. Searches were filtered using orthogonal measures including mass measurement accuracy (±3 parts per million), Xcorr for charges from +2 to +4, and dCn targeting a <1% false discovery rate at the peptide level. Quantification of LC-MS/MS spectra was performed using MassChroQ ([57]) and the iBAQ method ([58]). All data were analyzed using R 4.3.0. Missing values were imputed from a normal distribution. […] In each dataset, the abundance of the protein of interest was normalized to be equal across all samples. Statistical analyses were done using a two-tailed Student’s t test.

The values that follow come from article PMC11446282.

Substitutions are numbered along the chain they refer to.

B1: ZDS1 L866: ZDS1, L866 to alanine (protein, UniProt P50111 1-915, looked up, variant L866A)
Protein ZDS1: MSNRDNESMLRTTSSDKAIASQRDKRKSEVLIAAQSLDNEIRSVKNLKRLSIGSMDLLIDPELDIKFGGESSGRRSWSGTTSSSASMPSDTTTVNNTRYSDPTPLENLHGRGNSGIESSNKTKQGNYLGIKKGVHSPSRKLNANVLKKNLLWVPANQHPNVKPDNFLELVQDTLQNIQLSDNGEDNDGNSNENNDIEDNGEDKESQSYENKENNTINLNRGLSRHGNASLIRRPSTLRRSYTEFDDNEDDDNKGDSASETVNKVEERISKIKERPVSLRDITEELTKISNSAGLTDNDAITLARTLSMAGSYSDKKDQPQPEGHYDEGDIGFSTSQANTLDDGEFASNMPINNTMTWPERSSLRRSRFNTYRIRSQEQEKEVEQSVDEMKNDDEERLKLTKNTIKVEIDPHKSPFRQQDEDSENMSSPGSIGDFQDIYNHYRQSSGEWEQEMGIEKEAEEVPVKVRNDTVEQDLELREGTTDMVKPSATDDNKETKRHRRRNGWTWLNNKMSREDDNEENQGDDENEENVDSQRMELDNSKKHYISLFNGGEKTEVSNKEEMNNSSTSTATSQTRQKIEKTFANLFRRKPHHKHDASSSPSSSPSSSPSIPNNDAVHVRVRKSKKLGNKSGREPVEPIVLRNRPRPHRHHHSRHGSQKISVKTLKDSQPQQQIPLQPQLEGAIEIEKKEESDSESLPQLQPAVSVSSTKSNSRDREEEEAKKKNKKRSNTTEISNQQHSKHVQKENTDEQKAQLQAPAQEQVQTSVPVQASAPVQNSAPVQTSAPVEASAQTQAPAAPPLKHTSILPPRKLTFADVKKPDKPNSPVQFTDSAFGFPLPLLTVSTVIMFDHRLPINVERAIYRLSHAKLSNSKRGLREQVLLSNFMYAYLNLVNHTLYMEQVAHDKEQQQQQQQQP
In the assay on PP2A-B55α, B1 showed an Experimental % binding of 52%.

B2: ZDS1 L880: ZDS1, L880 to alanine (protein, UniProt P50111 1-915, looked up, variant L880A)
Protein ZDS1: B1 Protein ZDS1 with A866L, L880A
As for B2, the Experimental % binding with PP2A-B55α was determined as 0%.

B3: ZDS1 R858: ZDS1, R858 to alanine (protein, UniProt P50111 1-915, looked up, variant R858A)
Protein ZDS1: B1 Protein ZDS1 with R858A, A866L
On to B3, for which the Experimental % binding in the assay with PP2A-B55α came to 75%.

B4: ZDS1 S869: ZDS1, S869 to alanine (protein, UniProt P50111 1-915, looked up, variant S869A)
Protein ZDS1: B1 Protein ZDS1 with A866L, S869A
In the case of B4, the Experimental % binding in the assay with PP2A-B55α is 77%.

B5: ZDS1 R873: ZDS1, R873 to alanine (protein, UniProt P50111 1-915, looked up, variant R873A)
Protein ZDS1: B1 Protein ZDS1 with A866L, R873A
In the assay on PP2A-B55α, B5 returned an Experimental % binding of 15%.

B6: ZDS1 K872: ZDS1, K872 to alanine (protein, UniProt P50111 1-915, looked up, variant K872A)
Protein ZDS1: B1 Protein ZDS1 with A866L, K872A
As for B6, the Experimental % binding in the assay on PP2A-B55α is 23%.

B7: ZDS1 V879: ZDS1, V879 to alanine (protein, UniProt P50111 1-915, looked up, variant V879A)
Protein ZDS1: B1 Protein ZDS1 with A866L, V879A
On to B7, for which the Experimental % binding in the assay with PP2A-B55α is reported as 2%.

B8: ZDS1 L863: ZDS1, L863 to alanine (protein, UniProt P50111 1-915, looked up, variant L863A)
Protein ZDS1: B1 Protein ZDS1 with L863A, A866L
Consider B8, for which the Experimental % binding in the assay with PP2A-B55α is reported as 110%.

B9: ZDS1 Y861: ZDS1, Y861 to alanine (protein, UniProt P50111 1-915, looked up, variant Y861A)
Protein ZDS1: B1 Protein ZDS1 with Y861A, A866L
Take B9: in the assay with PP2A-B55α, the Experimental % binding is listed as 42%.

B10: ZDS1 Q878: ZDS1, Q878 to alanine (protein, UniProt P50111 1-915, looked up, variant Q878A)
Protein ZDS1: B1 Protein ZDS1 with A866L, Q878A
On to B10, for which, in the assay with PP2A-B55α, the Experimental % binding was determined as 13%.

B11: ZDS1 R876: ZDS1, R876 to alanine (protein, UniProt P50111 1-915, looked up, variant R876A)
Protein ZDS1: B1 Protein ZDS1 with A866L, R876A
B11: in the assay with PP2A-B55α, the Experimental % binding was 0%.

B12: ZDS1 E877: ZDS1, E877 to alanine (protein, UniProt P50111 1-915, looked up, variant E877A)
Protein ZDS1: B1 Protein ZDS1 with A866L, E877A
In the assay with PP2A-B55α, B12 displayed an Experimental % binding of 0%.

B13: ZDS1 G874: ZDS1, G874 to alanine (protein, UniProt P50111 1-915, looked up, variant G874A)
Protein ZDS1: B1 Protein ZDS1 with A866L, G874A
Molecule B13 registered an Experimental % binding in the assay on PP2A-B55α of 80%.

B14: ZDS1 L881: ZDS1, L881 to alanine (protein, UniProt P50111 1-915, looked up, variant L881A)
Protein ZDS1: B1 Protein ZDS1 with A866L, L881A
As for B14, the Experimental % binding with PP2A-B55α turned out to be 11%.

B15: ZDS1 I860: ZDS1, I860 to alanine (protein, UniProt P50111 1-915, looked up, variant I860A)
Protein ZDS1: B1 Protein ZDS1 with I860A, A866L
B15 registered an Experimental % binding with PP2A-B55α of 60%.

B16: ZDS1 K867: ZDS1, K867 to alanine (protein, UniProt P50111 1-915, looked up, variant K867A)
Protein ZDS1: B1 Protein ZDS1 with A866L, K867A
In turn, B16 yielded an Experimental % binding in the assay on PP2A-B55α of 15%.

B17: ZDS1 S882: ZDS1, S882 to alanine (protein, UniProt P50111 1-915, looked up, variant S882A)
Protein ZDS1: B1 Protein ZDS1 with A866L, S882A
As for B17, the Experimental % binding in the assay with PP2A-B55α is 98%.

B18: ZDS1 L875: ZDS1, L875 to alanine (protein, UniProt P50111 1-915, looked up, variant L875A)
Protein ZDS1: B1 Protein ZDS1 with A866L, L875A
The molecule B18 displayed an Experimental % binding in the assay with PP2A-B55α of 0%.

B19: ZDS1 L868: ZDS1, L868 to alanine (protein, UniProt P50111 1-915, looked up, variant L868A)
Protein ZDS1: B1 Protein ZDS1 with A866L, L868A
Take B19: the Experimental % binding with PP2A-B55α worked out at 56%.

B20: ZDS1 N870: ZDS1, N870 to alanine (protein, UniProt P50111 1-915, looked up, variant N870A)
Protein ZDS1: B1 Protein ZDS1 with A866L, N870A
For the molecule B20, the Experimental % binding in the assay on PP2A-B55α came out at 49%.

B21: ZDS1 R862: ZDS1, R862 to alanine (protein, UniProt P50111 1-915, looked up, variant R862A)
Protein ZDS1: B1 Protein ZDS1 with R862A, A866L
In turn, B21 had an Experimental % binding in the assay with PP2A-B55α of 32%.

B22: ZDS1 S871: ZDS1, S871 to alanine (protein, UniProt P50111 1-915, looked up, variant S871A)
Protein ZDS1: B1 Protein ZDS1 with A866L, S871A
In the assay with PP2A-B55α, B22 returned an Experimental % binding of 102%.

B23: 2ABA_HUMAN (protein, UniProt P63151 2-447, looked up)
Serine/threonine-protein …: AGAGGGNDIQWCFSQVKGAVDDDVAEADIISTVEFNHSGELLATGDKGGRVVIFQQEQENKIQSHSRGEYNVYSTFQSHEPEFDYLKSLEIEEKINKIRWLPQKNAAQFLLSTNDKTIKLWKISERDKRPEGYNLKEEDGRYRDPTTVTTLRVPVFRPMDLMVEASPRRIFANAHTYHINSISINSDYETYLSADDLRINLWHLEITDRSFNIVDIKPANMEELTEVITAAEFHPNSCNTFVYSSSKGTIRLCDMRASALCDRHSKLFEEPEDPSNRSFFSEIISSISDVKFSHSGRYMMTRDYLSVKIWDLNMENRPVETYQVHEYLRSKLCSLYENDCIFDKFECCWNGSDSVVMTGSYNNFFRMFDRNTKRDITLEASRENNKPRTVLKPRKVCASGKRKKDEISVDSLDFNKKILHTAWHPKENIIAVATTNNLYIFQDKVN
For B23, in the assay with B55α interactors, the log2_ratio_D340_WT amounted to 0.00, the “log2_ratio I284_WT” value turned out to be 0.00, the “log2_ratio S287_WT” value came to 0.00 and the “log2_ratio V228_WT” value amounted to 0.00.

B24: ARP19_HUMAN (protein, UniProt P56211 2-112, looked up)
cAMP-regulated phosphoprotein …: SAEVPEAASAEEQKEMEDKVTSPEKAEEAKLKARYPHLGQKPGGSDFLRKRLQKGQKYFDSGDYNMAKAKMKNKQLPTAAPDKTEVTGDHIPTPQDLPQRKPSLVASKLAG
As to B24, in the assay with B55α interactors, the log2_ratio_D340_WT is -2.01, the “log2_ratio I284_WT” value is -0.06, the “log2_ratio S287_WT” value was found to be 0.27 and the “log2_ratio V228_WT” value is reported as -0.89.

B25: ENSA_HUMAN (protein, UniProt O43768 2-121, looked up)
Alpha-endosulfine: SQKQEEENPAEETGEEKQDTQEKEGILPERAEEAKLKAKYPSLGQKPGGSDFLMKRLQKGQKYFDSGDYNMAKAKMKNKQLPSAGPDKNLVTGDHIPTPQDLPQRKSSLVTSKLAGGQVE
As to B25, in the assay on B55α interactors, the log2_ratio_D340_WT is on record as -2.08, the “log2_ratio I284_WT” value is on record as -0.42, the “log2_ratio S287_WT” value was found to be 0.42 and the “log2_ratio V228_WT” value is -1.31.
